Changes are numbered by the printed parent chain.

B1: 409_11_4_v7 (antibody, V domains shown)
VH: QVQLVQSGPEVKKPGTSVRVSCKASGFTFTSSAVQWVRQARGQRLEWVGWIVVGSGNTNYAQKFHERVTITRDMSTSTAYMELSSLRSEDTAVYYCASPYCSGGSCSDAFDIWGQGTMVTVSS
VL: DIVLTQTPGTLSLSPGERATLSCRASQSVSSSYLAWYQQKPGQAPRLLIYGASSRATGIPDRFSGSGSGTDFTLTISRLEPEDFAVYYCQQYVGLTGWTFGQGTKVEIK
B2: 409_11_4_v5 (antibody, V domains shown)
VH: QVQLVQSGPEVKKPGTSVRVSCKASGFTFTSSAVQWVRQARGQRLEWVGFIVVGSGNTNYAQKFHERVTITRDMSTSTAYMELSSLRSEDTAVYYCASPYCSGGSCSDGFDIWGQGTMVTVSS
VL: B1 VL
B3: 409_11_4_v3 (antibody, V domains shown)
VH: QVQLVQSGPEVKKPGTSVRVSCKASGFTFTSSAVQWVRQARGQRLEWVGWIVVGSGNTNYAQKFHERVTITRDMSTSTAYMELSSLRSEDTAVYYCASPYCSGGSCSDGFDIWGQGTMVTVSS
VL: B1 VL with W98F
B4: S2E12 (antibody, V domains shown)
VH: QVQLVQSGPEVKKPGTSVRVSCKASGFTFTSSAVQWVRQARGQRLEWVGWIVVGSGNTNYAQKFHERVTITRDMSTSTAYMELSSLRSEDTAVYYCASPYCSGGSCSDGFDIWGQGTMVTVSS
VL: B1 VL
notes: also called S2E12 WT; S2E12 wt
B5: S2X35 (antibody, V domains shown)
VH: QVQLVQSGAEVKKPGASVKVSCKASGYTFTNYGISWVRQAPGQGLEWMGWISAYKGNTNYAQKLQGRVTMTTDTSTSTAYMELRSLRSDDTAVYYCARPDYQVLGYDFWIGYYGMDVWGQGTTVIVSS
VL: QSVLTQPPSVSGAPGQRVTISCTGSSSNIGAGYDVHWYQQLPGTAPKLLIYGNTNRPSGVPDRFSGSKSGTSASLAITGLQAEDEADYYCQSYDSSLSGSEVVFGGGTKLTVL
notes: also called S2X35-11
B6: S2X47 (antibody, V domains shown)
VH: QVQLQESGPGLVKPSQTLSLTCTVSGGSISSRSYYWSWIRQPAGKGLEWIGRIYTSGNTNYNPSLRSRVTISVDTSKNQFSLKLGSVTAADTAVYYCARERIIGTAHVGGWFDPWGQGTLVTVSS
VL: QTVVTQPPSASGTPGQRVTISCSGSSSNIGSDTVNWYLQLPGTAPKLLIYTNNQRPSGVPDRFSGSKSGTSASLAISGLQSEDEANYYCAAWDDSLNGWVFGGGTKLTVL
notes: also called S2X47-11
B7: 409_11_4_v6 (antibody, V domains shown)
VH: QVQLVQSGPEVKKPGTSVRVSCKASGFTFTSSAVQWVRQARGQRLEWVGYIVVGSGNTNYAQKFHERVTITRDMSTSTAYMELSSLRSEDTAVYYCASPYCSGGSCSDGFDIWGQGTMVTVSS
VL: B1 VL
B8: 409_11_4_v12 (antibody, V domains shown)
VH: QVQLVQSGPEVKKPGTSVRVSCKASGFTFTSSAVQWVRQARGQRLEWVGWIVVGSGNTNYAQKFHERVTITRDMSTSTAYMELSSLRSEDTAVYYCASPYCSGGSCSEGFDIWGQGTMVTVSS
VL: B1 VL
B9: 409_11_4_v4 (antibody, V domains shown)
VH: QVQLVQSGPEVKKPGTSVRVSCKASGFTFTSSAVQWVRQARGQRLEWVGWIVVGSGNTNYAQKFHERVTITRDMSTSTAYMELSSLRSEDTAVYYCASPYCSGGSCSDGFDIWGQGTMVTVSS
VL: B1 VL with W98Y
B10: 409_11_4_v2 (antibody, V domains shown)
VH: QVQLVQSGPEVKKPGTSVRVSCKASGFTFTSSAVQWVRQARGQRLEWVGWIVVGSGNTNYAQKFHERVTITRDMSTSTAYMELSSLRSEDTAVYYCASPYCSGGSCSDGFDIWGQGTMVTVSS
VL: B1 VL with L47A
notes: also called S2E12-v2
B11: 409_11_4_v13 (antibody, V domains shown)
VH: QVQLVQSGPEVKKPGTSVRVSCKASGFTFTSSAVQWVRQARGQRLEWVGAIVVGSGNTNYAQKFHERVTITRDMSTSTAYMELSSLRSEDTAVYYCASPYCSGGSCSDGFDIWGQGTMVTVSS
VL: B1 VL
B12: S2X16 (antibody, V domains shown)
VH: EVQLVQSGAEVKKPGASVKVSCKASGYIFTDHYMHWVRQAPGQGLEWMGWINPNSGGTNYAQKFQGRVTMTRDTSINTAYMELSRLRSDDTAVHYCARDRSRFRFFSPDFDYWGQGTLVTVSS
VL: not shown
notes: also called S2X16-11
B13: S2X30 (antibody, V domains shown)
VH: EVQLVQSGAEVKKPGSSVKVSCKASGGTFGSYTISWVRQAPGQGLEWMGRIIPILSIPNYAQKFQGRVTFTADKSTSTAYMELSSLRSEDTAVYYCARGGGGTHAVPHYYFDSWGQGTLVTVSS
VL: EIVMMQSPATLSVSPGERATLSCRASQSVSSNLAWYQHKPGQAPRLLIYGASTRATGIPARFSGSGSGTEFTLTISSMQSEDFAVYYCQQYNNWPFTFGGGTKVEIK
notes: also called S2X30-11

The first assay deals with T1, SARS-CoV-2 RBD (정제된, SPR) (SARS-CoV-2 (Wuhan-Hu-1), UniProt P0DTC2 331-550). Nature of the assay: SPR, Biacore T200; ratio against S2E12 WT. Background: In SPR one partner is held on a chip, and binding of the other changes the refractive index at the surface.
Regarding B1, the KD/KD_WT was 0.267.

Take B2: the KD/KD_WT is 0.098.

As for B3, the KD/KD_WT worked out at 0.1.

The next assay has as its target T1, SARS-CoV-2 RBD (정제된, SPR). Nature of the assay: SPR, Biacore T200, single-cycle kinetics, antibody captured, RBD injected.
Take B4: the affinity, expressed as Kd, was 1.18 nM; the koff – broadly, the rate constant with which the complex falls apart – was determined as 0.00233 s⁻¹; the association rate constant (kon) (as a rule, a measure of how fast the partners come together) was determined as 1.98e+06 M⁻¹ s⁻¹.

As to B1, the Kd – broadly, the equilibrium constant for the complex coming apart – came out at 4.9 nM; the koff turned out to be 0.00913 s⁻¹; the kon worked out at 1.86e+06 M⁻¹ s⁻¹.

For the molecule B2, the affinity, expressed as Kd, was 13.3 nM; the koff came to 0.0358 s⁻¹; the kon was 2.68e+06 M⁻¹ s⁻¹.

Turning to B3, the Kd came to 13 nM, the koff amounted to 0.0153 s⁻¹ and the kon turned out to be 1.18e+06 M⁻¹ s⁻¹.

The target in a further assay is T2, SARS-CoV-2 RBD (자체 생산, BetaCoV/Wuhan-Hu-1/2019 스파이크의 잔기 331 내지 550, 수탁 번호 MN908947) (SARS-CoV-2 (BetaCoV/Wuhan-Hu-1/2019), UniProt P0DTC2 331-550).
T2 construct: range 331-550; also called SARS-CoV-2 스파이크 단백질 RBD
As to the kind of experiment: ELISA, RBD coated on plate, serial dilutions of recombinant mAb.
As for B5, the EC50 – broadly, the concentration at which the effect is half-maximal – was 0.0483 µg/mL.

Turning to B6, the EC50 is 0.092 µg/mL.

The next assay deals with T3, SARS-CoV RBD (Sino Biological) (SARS-CoV (SARS-CoV-1), UniProt P59594 306-527).
T3 construct: domain: RBD; also called SARS-CoV-1 RBD; SARS-CoV-1 스파이크 단백질 RBD
Described as above.
In the case of B5, the EC50 amounted to 0.0846 µg/mL.

The target of another assay is T1, SARS-CoV-2 RBD (정제된, SPR).
Experiment: not given
For the molecule B4, the Kd was 2.28 nM.

In turn, B7 gave a Kd of 20.4 nM.

For B8, the Kd is 45.3 nM.

B9 yielded a Kd of 25.9 nM.

With B10, the Kd amounted to 0.788 nM. This Kd is about 33-fold lower than that of the molecule before.

In turn, B11 returned a Kd of 51.4 nM.

Another assay deals with T3, SARS-CoV RBD (Sino Biological). As to the kind of experiment: ELISA, RBD coated on plate. For orientation: ELISA stands for enzyme-linked immunosorbent assay.
Turning to B12, the binding result was “no binding”.

Turning to B6, the binding result is given as “no binding”.

For B13, the binding result is recorded as “no binding”.

The target of the next assay is SARS-CoV-2 스파이크 단백질 (SARS-CoV-2, UniProt P0DTC2 14-1273). Nature of the assay: cell-based or functional assay.
On to B12, for which the “IC50 (neutralisation)” value was found to be 0.006 µg/mL, the “IC80 (neutralisation)” value was 0.022 µg/mL and the “IC90 (neutralisation)” value was found to be 0.046 µg/mL.

Consider B5, for which the “IC50 (neutralisation)” value came to 0.092 µg/mL, the “IC80 (neutralisation)” value stood at 0.32 µg/mL and the “IC90 (neutralisation)” value is 0.661 µg/mL.

In the case of B6, the “IC50 (neutralisation)” value stood at 0.003 µg/mL, the “IC80 (neutralisation)” value was 0.012 µg/mL and the “IC90 (neutralisation)” value worked out at 0.025 µg/mL.

Turning to B13, the “IC50 (neutralisation)” value stood at 0.015 µg/mL, the “IC80 (neutralisation)” value was 0.031 µg/mL and the “IC90 (neutralisation)” value was found to be 0.046 µg/mL.

In a further assay the target is T1, SARS-CoV-2 RBD (정제된, SPR).
Experiment: not given
The source holds these as a separate data set.
Molecule B4 returned a Kd of 1.31 nM, an off-rate constant (koff) of 0.00317 s⁻¹ and a kon of 2.42e+06 M⁻¹ s⁻¹.

The target of another assay is T2, SARS-CoV-2 RBD (자체 생산, …). As to the kind of experiment: ELISA, RBD coated on plate, serial dilutions of recombinant mAb. The source holds these as a separate data set.
For B4, the EC50 worked out at 0.0434 µg/mL.

A further assay deals with T1, SARS-CoV-2 RBD (정제된, SPR). Nature of the assay: SPR, Biacore T200; ratio against S2E12 WT. This is another data set of the same source.
As to B4, the KD_WT/KD worked out at 1.

For B7, the KD_WT/KD was found to be 0.11.

As for B8, the KD_WT/KD stood at 0.05.

For the molecule B9, the KD_WT/KD worked out at 0.09.

As for B10, the KD_WT/KD amounted to 2.89.

Turning to B11, the KD_WT/KD worked out at 0.04.

The record behind these values is patent KR20230010676A (dated 2023).
